PMC11901700, “A Sweet Almond Globulin Multifunctional Peptide: Identification, In Silico Screening, Restraint Mechanisms to Keap1 and ACE, and Antihypertensive and Ferrous Transport Efficiency” (Nutrients, 2025)
Where no end group is shown, it is not given here.

How the values were obtained:
ACE (from rabbit lungs) = molecular target: T1, ACE (from rabbit lungs) (Oryctolagus cuniculus, UniProt P12822); experiment: ACE inhibitory ability (hippuric acid method); type: biochemical; conditions: hippuric acid method, HHL substrate, absorbance at 228 nm; N = 3; read-out: ACE inhibitory activity (IC50)
T1 construct: ACE (0.1 U, from rabbit lungs, purity > 99.7%, CAS: 9015-82-1) was obtained from Sigma-Aldrich; purchased Sigma-Aldrich (St. Louis, MO, USA); host or cells: rabbit lung tissue
T1 sequence (P12822 34-1310): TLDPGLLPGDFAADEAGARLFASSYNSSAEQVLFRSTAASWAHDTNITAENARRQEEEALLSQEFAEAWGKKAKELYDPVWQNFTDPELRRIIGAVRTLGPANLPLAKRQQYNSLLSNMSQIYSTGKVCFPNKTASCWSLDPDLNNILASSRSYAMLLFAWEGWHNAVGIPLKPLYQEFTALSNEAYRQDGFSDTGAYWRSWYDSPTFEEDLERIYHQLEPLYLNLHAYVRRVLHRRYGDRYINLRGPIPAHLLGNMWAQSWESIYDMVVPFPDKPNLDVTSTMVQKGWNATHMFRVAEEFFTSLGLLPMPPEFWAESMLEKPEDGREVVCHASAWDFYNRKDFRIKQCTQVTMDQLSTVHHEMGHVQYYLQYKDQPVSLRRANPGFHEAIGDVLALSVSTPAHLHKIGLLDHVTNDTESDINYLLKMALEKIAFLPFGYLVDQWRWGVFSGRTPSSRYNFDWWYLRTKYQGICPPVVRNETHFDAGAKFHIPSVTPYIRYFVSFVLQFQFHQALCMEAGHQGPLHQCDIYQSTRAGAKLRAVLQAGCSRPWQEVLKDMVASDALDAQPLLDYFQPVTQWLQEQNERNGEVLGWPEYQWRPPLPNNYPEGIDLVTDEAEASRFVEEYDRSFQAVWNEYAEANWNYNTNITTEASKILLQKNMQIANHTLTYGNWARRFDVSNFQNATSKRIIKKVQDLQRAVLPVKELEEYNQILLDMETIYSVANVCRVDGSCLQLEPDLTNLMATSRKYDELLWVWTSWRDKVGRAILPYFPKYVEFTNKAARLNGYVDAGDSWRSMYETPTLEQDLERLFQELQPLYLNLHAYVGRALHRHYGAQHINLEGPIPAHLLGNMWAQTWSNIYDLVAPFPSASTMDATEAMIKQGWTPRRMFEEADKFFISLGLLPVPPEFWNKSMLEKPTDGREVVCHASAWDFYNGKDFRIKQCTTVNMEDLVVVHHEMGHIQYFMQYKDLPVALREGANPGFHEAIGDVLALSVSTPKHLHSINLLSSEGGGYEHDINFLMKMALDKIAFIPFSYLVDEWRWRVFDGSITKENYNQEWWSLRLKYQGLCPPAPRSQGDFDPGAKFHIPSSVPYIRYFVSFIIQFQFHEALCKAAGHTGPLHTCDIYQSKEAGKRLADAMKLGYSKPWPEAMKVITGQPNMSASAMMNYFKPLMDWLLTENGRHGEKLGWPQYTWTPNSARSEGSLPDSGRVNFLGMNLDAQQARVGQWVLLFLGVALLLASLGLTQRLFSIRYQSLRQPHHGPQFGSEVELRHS
Description: The hippuric acid method was used to measure the samples’ inhibitory ability towards ACE, following the same procedures as Zheng et al.. The absorbance at 228 nm was the hippuric acid content and represented ACE activity; therefore, the inhibitory ability of samples towards ACE was defined as the percentage of reduction in the absorption at 228 nm between the control and sample groups. Moreover, the ACE inhibitory kinetic of SAGH peptides was investigated by employing a Lineweaver–Burk plot with N-hippuryl-L-histidyl-L-leucine (HHL, 0.13–1.32 mmol/L) as the substrate.
As described by Wu et al., the simulative gastric digestive fluid consisted of sodium chloride (0.18 mol/L), ultrapure water (180 mL), and 0.40 mg/mL of pepsin. The simulation intestinal digestive juice was composed of NaHCO3, ([…]), bile salt (3 g/100 mL), pancreatin (0.35 mg/mL), and 180 mL of ultrapure water. The antihypertensive and antioxidant SAGH peptides (5 mg/mL, 60 mL) were first hydrolyzed using 150 mL of simulative gastric fluid at 37 °C and 140 rpm for 90 min. The mixture was adjusted to pH 7.0, and 180 mL of the simulative intestinal hydrolysis fluid was added and stirred at 37 °C for 2 h. After boiling for 6 min, the mixture was cooled with running water to room temperature. The ACE inhibition capacity and antioxidant ability of the treated SAGH peptides were detected and compared to those of the […] SAGH peptides.

[1] = Superoxide radical scavenging activity (pyrogallol auto-oxidation method); type: physicochemical; conditions: at 100 μg/mL
Protocol: As described by Wang et al. and Vásquez et al., the hydroxyl (·OH) and superoxide ( O2−· ) radicals’ scavenging activity was measured using the β-deoxyribose oxidation and pyrogallol auto-oxidation methods, respectively. The comparison was conducted when the samples were replaced by glutathione (0.1 mg/mL).

[2] = Reducing power (potassium ferricyanide method); type: physicochemical; conditions: at 100 μg/mL, absorbance at 700 nm
Description: The potassium ferricyanide method was employed to determine the reducing power of the SAGH peptides at the same conditions reported by Wang et al., where the absorbance at 700 nm represented the reducing power.

[3] = Gastrointestinal stability of peptide–ferrous chelate (ferrous solubility in simulated digestion); type: in vitro ADME
Protocol: Next, the intestinal digestive fluid was added, and digestion was continued at pH 6.8 for 2 h in the EDZF-C002 thermostatic vibrator ([…], 175 rpm).

[4] = listed as PMYGGGMV–ferrous chelates

For “PMYGGGMV–ferrous chelate: chelate prepared by reacting the peptide with FeCl2 at pH 6.5 (also: ferrous iron chelate (reaction with FeCl2))”, the IC50 (ACE (from rabbit lungs)) was 116 µM, the “Superoxide Radical Scavenging Ability (%) Before Gastrointestinal Digestion” value [1] was 75.49 ± 4.09 b % and the “Superoxide Radical Scavenging Ability (%) Before Gastrointestinal Digestion” value [1, 4] was 75.49%. The “Reducing Power Before Gastrointestinal Digestion” value [2] was 0.179 ± 0.003 e, the “Reducing Power Before Gastrointestinal Digestion” value [2, 4] was 0.179 and the “ferrous solubility during gastric digestion” value ([3]; 0–90 min, simulated gastric fluid pH 1.9, 37 °C, 175 rpm, soluble ferrous by o-phenanthroline every 30 min, N = 3) was “relatively stable”. For the same substance, the “ferrous solubility during intestinal digestion” value ([3]; 91–240 min, intestinal digestive fluid pH 6.8, soluble ferrous by o-phenanthroline, p < 0.05) was “apparently decreased” and the “ferrous solubility compared with ferrous lactate and ferrous chloride” value ([3]; from 90 to 150 min of simulated gastrointestinal digestion, p < 0.05) was “much higher than those of ferrous lactate and ferrous chloride”.
